The source of these data is patent US20230212549A1 (3B PHARMACEUTICALS, published 2023).

Numbered stars: 1 amine (or outer) side, 2 acyl side, 3 side chain; on linkers, the order of the positions; unused ones are H or OH. Bridge positions count the residues as written; N and C are the ends. Square brackets hold non-standard residues; d marks the D form. Primed or numbered codes have the meaning given here. * marks the point of attachment. Ttds = 1,13-diamino-4,7,10-trioxatridecan-succinamic acid, O=C(CCC(=O)[*:2])NCCCOCCOCCOCCCN[*:1]; 3MeBn = 3-Methylbenzylidene (m-xylylene thioether bridge from α,α′-dibromo-m-xylene); N4Ac = 6-Carboxy-1,4,8,11-tetraazaundecane, an N4-chelator, NCCNCC(CNCCN)C(=O)*; DOTA = O=C(O)CN1CCN(CC(=O)O)CCN(CC(=O)*)CCN(CC(=O)O)CC1; mXylylene = c1cc(C[*:1])cc(C[*:2])c1; Nle = CCCC[C@H](N)C(=O)O; PEG6′ = not defined here; βAla = NCCC(=O)O

Test [1] has as its target T1, Recombinant human FAP (R&D systems, #3715-SE) (human, UniProt Q12884 26-760).
T1 construct: bought; in SPR captured on immobilized anti-FAP antibody MAB3715; also called rhFAP; human recombinant FAP
Kind of test: SPR (Biacore T200), FAP captured on anti-FAP antibody, single cycle kinetics; B = pKD 7.1 to 8.0. (In general: Surface plasmon resonance follows binding to a sensor surface in real time, without labels.)

For test [2], the target named is T2, recombinant human PREP (R&D systems, #4308-SE) (human, UniProt P48147 1-710).
T2 sequence: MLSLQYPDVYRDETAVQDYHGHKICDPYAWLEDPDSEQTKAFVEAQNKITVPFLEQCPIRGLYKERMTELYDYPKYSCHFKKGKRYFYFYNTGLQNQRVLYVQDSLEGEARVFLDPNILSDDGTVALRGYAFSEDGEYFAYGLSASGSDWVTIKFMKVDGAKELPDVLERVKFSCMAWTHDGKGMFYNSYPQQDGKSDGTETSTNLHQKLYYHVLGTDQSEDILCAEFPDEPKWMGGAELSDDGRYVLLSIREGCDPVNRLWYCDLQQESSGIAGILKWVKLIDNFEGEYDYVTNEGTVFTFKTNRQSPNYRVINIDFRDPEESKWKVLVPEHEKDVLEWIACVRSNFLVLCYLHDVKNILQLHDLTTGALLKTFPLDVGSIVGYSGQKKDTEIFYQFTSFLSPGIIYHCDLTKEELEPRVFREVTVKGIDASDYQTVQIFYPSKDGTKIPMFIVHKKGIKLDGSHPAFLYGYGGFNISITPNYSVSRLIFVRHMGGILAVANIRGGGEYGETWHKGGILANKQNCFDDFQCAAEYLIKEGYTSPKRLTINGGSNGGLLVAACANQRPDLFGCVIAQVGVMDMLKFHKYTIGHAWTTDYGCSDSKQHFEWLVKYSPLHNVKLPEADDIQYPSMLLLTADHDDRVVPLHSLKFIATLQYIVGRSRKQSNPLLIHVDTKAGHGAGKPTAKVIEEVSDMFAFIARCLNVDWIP
Description: cell-based or functional assay.

Test [3] addresses Recombinant human DPP4 (R&D systems, #9168-SE) (human, UniProt P27487 29-766). Description: cell-based or functional assay.
The target in test [4] is T3, human fibroblast activating protein (FAP) on WI-38 fibroblasts (human, UniProt Q12884 1-760).
T3 construct: FAP-expressing human WI-38 fibroblasts (ECACC)
Kind of test: competitive FACS on WI-38 cells vs 3 nM Cy5-labeled peptide; pIC50 category C = 6.1-7.0.

Recombinant human DPP4 (R&D systems, #9168-SE), sequence (P27487 29-766 limits assumed): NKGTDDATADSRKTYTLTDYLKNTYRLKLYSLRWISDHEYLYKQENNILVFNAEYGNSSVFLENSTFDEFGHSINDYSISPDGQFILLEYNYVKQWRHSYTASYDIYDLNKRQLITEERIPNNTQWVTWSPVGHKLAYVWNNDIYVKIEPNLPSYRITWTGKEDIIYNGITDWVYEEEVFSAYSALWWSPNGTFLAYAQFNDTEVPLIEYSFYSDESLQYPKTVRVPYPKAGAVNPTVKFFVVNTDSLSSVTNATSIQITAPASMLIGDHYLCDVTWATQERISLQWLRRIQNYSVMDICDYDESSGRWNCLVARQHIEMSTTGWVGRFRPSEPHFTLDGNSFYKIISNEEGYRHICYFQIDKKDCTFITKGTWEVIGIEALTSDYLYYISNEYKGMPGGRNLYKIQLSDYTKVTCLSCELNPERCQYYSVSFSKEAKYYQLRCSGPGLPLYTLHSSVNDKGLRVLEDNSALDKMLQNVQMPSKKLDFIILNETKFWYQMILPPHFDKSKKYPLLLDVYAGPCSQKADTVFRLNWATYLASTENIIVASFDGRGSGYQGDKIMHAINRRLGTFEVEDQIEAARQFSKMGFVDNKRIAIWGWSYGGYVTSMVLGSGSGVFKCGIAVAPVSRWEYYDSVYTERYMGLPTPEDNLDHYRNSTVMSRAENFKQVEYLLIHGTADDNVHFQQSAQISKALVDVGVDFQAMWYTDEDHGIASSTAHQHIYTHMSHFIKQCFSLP

B1: DOTA-Ttds-Nle-[Cys(3MeBn)-Pro-Pro-Thr-Glu-Phe-Cys]-NH2 (peptide)
peptide: {DOTA}-[Ttds][Nle]CPPTEFC-NH2
modifications: linker 3-9 via mXylylene
SMILES: CCCC[C@H](NC(=O)CCC(=O)NCCCOCCOCCOCCCNC(=O)CN1CCN(CC(=O)O)CCN(CC(=O)O)CCN(CC(=O)O)CC1)C(=O)N[C@H]1CSCc2cccc(c2)CSC[C@@H](C(N)=O)NC(=O)[C@H](Cc2ccccc2)NC(=O)[C@H](CCC(=O)O)NC(=O)[C@H]([C@@H](C)O)NC(=O)[C@@H]2CCCN2C(=O)[C@@H]2CCCN2C1=O
notes: also called 3BP-3319
As to B1, the pKD in test [1] was 7.1 to 8 pkd. Further, in test [2], the “pIC50 (PREP)” value was determined as 6.2 pIC50. Moreover, in test [3], the “pIC50 (DPP4)” value was less than 6 pIC50.

In test [4], {N4Ac-PEG6′-βAla}-[Nle]CPPTEFC-OH (linker 2-8 via 3MeBn, also called 3BP-4779) [N4Ac-PEG6-Bal-Nle-[C(3MeBn)-PPTEFC]-OH] yielded a pIC50 of 6.1 to 7 pic50.
